The values below come from publication PMC5076566 (Cell, 2016).

Data set [1] addresses T1, His-3xFlag tagged D290V hnRNPA2 LCS (181-341 aa) (human, UniProt P22626-2 181-341, D290V).
T1 sequence (looked up): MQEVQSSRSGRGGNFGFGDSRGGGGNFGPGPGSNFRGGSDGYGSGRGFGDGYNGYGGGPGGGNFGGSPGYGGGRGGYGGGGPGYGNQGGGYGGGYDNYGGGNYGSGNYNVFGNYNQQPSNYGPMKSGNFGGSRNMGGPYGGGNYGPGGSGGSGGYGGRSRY
The data set is described as follows: co-IP.

In data set [2] the target is GFP:hnRNPA1 full length (residue 2-320) (human, UniProt P09651-2 2-320). Kind of data set: co-IP.
Data set [3] deals with GFP:hnRNPA1 ΔRRM (186-320), the C-terminal LC domain (human, UniProt P09651-2 186-320). The data set is described as follows: co-IP.
Data set [4] concerns the molecule itself. The data set is described as follows: polymerisation and hydrogel formation.
For data set [5], the target named is Recombinant human vimentin, full length (2-466 AA), assembled into intermediate filaments (human, UniProt P08670 2-466). The data set is described as follows: transmission electron microscopy of filaments mixed with test protein.

Turning to PRPRPRPRPRPRPRPRPRPRPRPRPRPRPRPRPRPRPRPR [PR20HA peptide (20 repeats of PR with an HA epitope tag at the C-terminus)], the binding result in data set [1], in data set [2] and in data set [3] was “binds” throughout.

B1: mCherry:peripherin head domain (2-99) (domain or fragment, human, UniProt P41219 2-99, looked up)
chain: SHHPSGLRAGFSSTSYRRTFGPPPSLSPGAFSYSSSSRFSSSRLLGSASPSSSVRLGSFRSPRAGAGALLRLPSERLDFSMAEALNQEFLATRSNEKQ
With B1, the binding result in data set [4] is “binds”.

B2: mCherry:neurofilament light isoform head domain (2-100) (domain or fragment, human, UniProt P07196 2-100, looked up)
chain: SSFSYEPYYSTSYKRRYVETPRVHISSVRSGYSTARSAYSSYSAPVSSSLSVRRSYSSSSGSLMPSLENLDLSQVAAISNDLKSIRTQEKAQLQDLNDR
For B2, the binding result in data set [4] is on record as “binds”.

B3: mCherry:vimentin head domain (2-95) (domain or fragment, human, UniProt P08670 2-95, looked up)
chain: STRSVSSSSYRRMFGGPGTASRPSSSRSYVTTSTRTYSLGSALRPSTSRSLYASSPGGVYATRSSAVRLRSSVPGVRLLQDSVDFSLADAINTE
On to B3, for which, in data set [4], the binding result is reported as “binds”.

B4: mCherry:neurofilament medium isoform head domain (2-104) (domain or fragment, human, UniProt P07197 2-104, looked up)
chain: SYTLDSLGNPSAYRRVTETRSSFSRVSGSPSSGFRSQSWSRGSPSTVSSSYKRSMLAPRLAYSSAMLSSAESSLDFSQSSSLLNGGSGPGGDYKLSRSNEKEQ
For B4, in data set [4], the binding result was “binds”.

B5: mCherry:neurofilament heavy isoform head domain (3-100) (domain or fragment, human, UniProt P12036 3-100, looked up)
chain: SFGGADALLGAPFAPLHGGGSLHYALARKGGAGGTRSAAGSSSGFHSWTRTSVSSVSASPSRFRGAGAASSTDSLDTLSNGPEGCMVAVATSRSEKEQ
On to B5, for which, in data set [4], the binding result was “binds”.

B6: GFP:FUS LC domain (residue 2-214) (domain or fragment, UniProt P35637 2-214, looked up)
chain: ASNDYTQQATQSYGAYPTQPGQGYSQQSSQPYGQQSYSGYSQSTDTSGYGQSSYSSYGQSQNTGYGTQSTPQGYGSTGGYGSSQSSQSSYGQQSSYPGYGQQPAPSSTSGSYGSSSQSSSYGQPQSGSYSQQPSYGGQQQSYGQQQSYNPPQGYGQQNQYNSSSGGGGGGGGGGNYGQDQSSMSSGGGSGGGYGNQDQSGGGGSGGYGQQDRG
Take B6: the binding result in data set [5] was “binds”.
